# Measured values from patent US7169567.
# “And” between values parts separate entries of the source, which are not always exact repeats. Equal entries are not always repeated.
# Assays:
# Assay in all cases: cell-based or functional assay
# [1] = molecular target: intact rat PTH-1 receptor with HA epitope tag (rWT-HA) (rat) (UniProt P25961)
# [2] = molecular target: truncated rat PTH-1 receptor rΔNt (rat) (UniProt P25961)
# [3] = molecular target: human PTH-1 receptor (human) (UniProt Q03431)
# [4] = molecular target: intact rat secretin receptor (rat) (UniProt P23811)
# Sequence of intact rat secretin receptor (rat) (P23811 26-449): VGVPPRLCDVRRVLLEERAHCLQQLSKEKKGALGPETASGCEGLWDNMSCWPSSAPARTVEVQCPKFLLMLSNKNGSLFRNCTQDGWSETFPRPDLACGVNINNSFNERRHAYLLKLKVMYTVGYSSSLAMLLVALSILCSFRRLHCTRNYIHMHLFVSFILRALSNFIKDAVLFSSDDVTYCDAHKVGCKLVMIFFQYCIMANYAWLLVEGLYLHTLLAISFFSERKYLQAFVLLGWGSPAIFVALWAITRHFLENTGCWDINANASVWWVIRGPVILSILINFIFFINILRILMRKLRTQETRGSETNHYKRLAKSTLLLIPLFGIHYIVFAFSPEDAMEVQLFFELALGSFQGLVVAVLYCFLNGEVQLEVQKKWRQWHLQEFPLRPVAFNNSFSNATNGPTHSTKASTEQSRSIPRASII
# Sequence of human PTH-1 receptor (human) (Q03431 27-593): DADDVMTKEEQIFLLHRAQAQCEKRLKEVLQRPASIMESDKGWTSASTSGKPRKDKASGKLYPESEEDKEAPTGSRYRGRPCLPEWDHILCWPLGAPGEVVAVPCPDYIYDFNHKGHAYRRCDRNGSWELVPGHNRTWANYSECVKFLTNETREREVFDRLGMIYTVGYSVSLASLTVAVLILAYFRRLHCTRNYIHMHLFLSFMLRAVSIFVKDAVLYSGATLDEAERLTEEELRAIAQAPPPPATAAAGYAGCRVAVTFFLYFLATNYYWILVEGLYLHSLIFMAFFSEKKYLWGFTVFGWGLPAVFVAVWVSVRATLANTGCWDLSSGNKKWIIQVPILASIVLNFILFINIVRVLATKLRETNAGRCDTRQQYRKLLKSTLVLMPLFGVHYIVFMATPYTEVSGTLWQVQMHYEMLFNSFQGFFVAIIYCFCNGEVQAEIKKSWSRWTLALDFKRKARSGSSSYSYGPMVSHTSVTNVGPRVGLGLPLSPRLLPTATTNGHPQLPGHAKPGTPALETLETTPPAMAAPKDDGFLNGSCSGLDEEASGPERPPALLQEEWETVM
# Sequence of intact rat PTH-1 receptor with HA epitope tag (rWT-HA) (rat) (P25961 other isoform, or with tags, fused parts or gaps): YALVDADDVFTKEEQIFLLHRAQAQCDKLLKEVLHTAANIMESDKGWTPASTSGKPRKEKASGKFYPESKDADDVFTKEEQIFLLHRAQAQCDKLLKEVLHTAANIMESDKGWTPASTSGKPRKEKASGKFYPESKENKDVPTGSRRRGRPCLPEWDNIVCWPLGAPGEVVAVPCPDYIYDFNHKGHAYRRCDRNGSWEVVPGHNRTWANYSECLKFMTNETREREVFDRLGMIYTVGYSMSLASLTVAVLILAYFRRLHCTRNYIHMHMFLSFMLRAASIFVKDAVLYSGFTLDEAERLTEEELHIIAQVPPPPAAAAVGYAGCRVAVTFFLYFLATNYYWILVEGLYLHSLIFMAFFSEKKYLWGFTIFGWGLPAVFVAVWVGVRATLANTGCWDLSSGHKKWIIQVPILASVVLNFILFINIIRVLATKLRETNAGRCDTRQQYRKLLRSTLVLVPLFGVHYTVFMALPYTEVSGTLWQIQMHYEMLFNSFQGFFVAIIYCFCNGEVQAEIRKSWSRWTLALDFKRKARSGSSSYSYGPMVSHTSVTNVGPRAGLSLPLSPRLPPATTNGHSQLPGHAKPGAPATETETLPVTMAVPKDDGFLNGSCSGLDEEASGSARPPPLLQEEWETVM
# Sequence of truncated rat PTH-1 receptor rΔNt (rat) (P25961 other isoform, or with tags, fused parts or gaps mutant): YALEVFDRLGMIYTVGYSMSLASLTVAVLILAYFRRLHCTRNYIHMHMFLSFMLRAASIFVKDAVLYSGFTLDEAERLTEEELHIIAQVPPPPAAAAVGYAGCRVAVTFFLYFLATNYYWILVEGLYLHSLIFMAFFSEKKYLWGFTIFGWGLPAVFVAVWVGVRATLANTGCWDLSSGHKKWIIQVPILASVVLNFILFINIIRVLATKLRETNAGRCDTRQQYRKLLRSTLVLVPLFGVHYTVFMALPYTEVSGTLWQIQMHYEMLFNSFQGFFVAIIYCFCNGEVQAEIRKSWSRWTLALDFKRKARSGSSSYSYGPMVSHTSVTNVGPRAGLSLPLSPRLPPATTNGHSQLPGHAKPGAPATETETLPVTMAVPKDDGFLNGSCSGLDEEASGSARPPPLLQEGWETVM
substance,measurement,setting,value
"[Leu11,D-Trp12]hPTHrP(7-34)NH2 (from UniProt P12272 43-70) (peptide)",reduction of the cAMP efficacy of the agonist PTH(1-14),[1],< 70%
same,reduction of the cAMP efficacy of the agonist PTH(1-34),[1],< 70%
"[Nle8,21,Tyr34]rPTH-(1-34)NH2 (from UniProt P04089 32-65) (peptide)",decrease in cAMP potency compared with rWT-HA,[2],100 fold
same,EC50 of the cAMP response,[3],2 nM
same,increase in intracellular cAMP levels relative to the basal cAMP level,[3],50 fold
same,maximum cAMP response,[3],254 pmole/well
rat PTH(1-15) (from UniProt P04089 32-46) (peptide),cAMP formation over the basal level,[3],20 fold
same,dose required for cAMP activation relative to PTH(1-34) (orders of magnitude),[3],5 and 6
secretin(1-27) (peptide),increase in cAMP levels,[4],50 fold
